The Immune Epitope Database (IEDB)

What was measured:
HLA-B*39:01 [1] = assay: IEDB peptide-MHC binding, purified MHC/direct/fluorescence; filed as Kd, often an IC50 or EC50 that approximates it; ≥ and ≤ were set here for values at or beyond the usual limits of such assays; settings: source organism: Camelpox virus M-96
HLA-B*51:01 [2] = assay: as above; settings: source organism: Homo sapiens
HLA-B*39:01 [3] = assay: IEDB peptide-MHC binding, purified MHC/competitive/fluorescence; filed as Kd, often an IC50 or EC50 that approximates it; ≥ and ≤ were set here for values at or beyond the usual limits of such assays
HLA-A*02:01 [4] = assay: as above
HLA-A*68:02 [5] = assay: as above; settings: source organism: Human immunodeficiency virus 1
HLA-A*26:02 = assay: as above; settings: source organism: Human immunodeficiency virus 1
HLA-A*69:01 = assay: as above
HLA-B*51:01 [6] = assay: as above
HLA-B*15:17 = assay: as above
HLA-B*46:01 = assay: as above
HLA-B*15:42 = assay: as above; settings: source organism: Vibrio parahaemolyticus RIMD 2210633
HLA-B*57:01 = assay: as above
HLA-B*45:06 = assay: as above; settings: source organism: Vibrio parahaemolyticus RIMD 2210633
HLA-A*26:01 = assay: as above
HLA-B*18:01 = assay: as above
HLA-B*83:01 = assay: as above; settings: source organism: Vibrio parahaemolyticus RIMD 2210633
HLA-A*11:01 [7] = assay: IEDB peptide-MHC binding, purified MHC/direct/fluorescence; filed as Kd, often an IC50 or EC50 that approximates it; ≥ and ≤ were set here for values at or beyond the usual limits of such assays; settings: source organism: Vibrio parahaemolyticus RIMD 2210633
HLA-A*68:02 [8] = assay: as above
HLA-A*29:02 = assay: as above
HLA-A*02:03 [9] = assay: as above
HLA-A*02:12 = assay: as above
HLA-A*02:16 = assay: as above
HLA-A*02:11 = assay: as above
HLA-A*24:03 = assay: as above
HLA-A*23:01 = assay: as above
HLA-A*02:19 = assay: as above
HLA-B*27:03 = assay: IEDB peptide-MHC binding, purified MHC/competitive/fluorescence; filed as Kd, often an IC50 or EC50 that approximates it; ≥ and ≤ were set here for values at or beyond the usual limits of such assays
HLA-A*03:01 [10] = assay: IEDB peptide-MHC binding, purified MHC/direct/fluorescence; filed as Kd, often an IC50 or EC50 that approximates it; ≥ and ≤ were set here for values at or beyond the usual limits of such assays
HLA-B*15:01 [11] = assay: as above; settings: source organism: Ebola virus - Eckron (Zaire, 1976)
HLA-A*24:02 = assay: IEDB peptide-MHC binding, purified MHC/competitive/fluorescence; ≥ and ≤ were set here for values at or beyond the usual limits of such assays; settings: source organism: Sudan ebolavirus
HLA-B*15:01 [12] = assay: as above
HLA-B*15:01 [13] = assay: IEDB peptide-MHC binding, purified MHC/competitive/fluorescence; filed as Kd, often an IC50 or EC50 that approximates it; ≥ and ≤ were set here for values at or beyond the usual limits of such assays
HLA-A*02:01 [14] = assay: IEDB peptide-MHC binding, purified MHC/direct/fluorescence; filed as Kd, often an IC50 or EC50 that approximates it; ≥ and ≤ were set here for values at or beyond the usual limits of such assays; settings: source organism: Sudan ebolavirus - Maleo (1979)
HLA-A*01:01 = assay: as above
HLA-A*11:01 [15] = assay: IEDB peptide-MHC binding, purified MHC/competitive/fluorescence; ≥ and ≤ were set here for values at or beyond the usual limits of such assays
HLA-A*03:01 [16] = assay: as above
HLA-B*07:02 = assay: as above
HLA-B*08:01 = assay: IEDB peptide-MHC binding, purified MHC/competitive/fluorescence; filed as Kd, often an IC50 or EC50 that approximates it; ≥ and ≤ were set here for values at or beyond the usual limits of such assays; settings: source organism: Yersinia pestis CO92
HLA-A*02:01 [17] = assay: IEDB peptide-MHC binding, purified MHC/competitive/fluorescence; ≥ and ≤ were set here for values at or beyond the usual limits of such assays; settings: source organism: Variola virus
HLA-A*02:03 [18] = assay: IEDB peptide-MHC binding, purified MHC/competitive/fluorescence; filed as Kd, often an IC50 or EC50 that approximates it; ≥ and ≤ were set here for values at or beyond the usual limits of such assays; settings: source organism: Human immunodeficiency virus 1
[19] = source organism: Human immunodeficiency virus 1
[20] = source organism: Vibrio parahaemolyticus RIMD 2210633
[21] = source organism: Zaire ebolavirus
[22] = source organism: Ravn virus - Ravn, Kenya, 1987
[23] = source organism: Reston ebolavirus
[24] = source organism: Vaccinia virus

Sequence: HHDPILNGL
- Kd (HLA-B*39:01 [1]): 0.0426 µM

Sequence: YPGFGEHLI
- Kd (HLA-B*51:01 [2]): 1.89 µM

Sequence: DIKDTKEAL
- Kd (HLA-B*39:01 [3]; [19]): ≥ 20 µM
- Kd (HLA-A*02:01 [4]; [19]): ≥ 20 µM
- Kd (HLA-A*68:02 [5]): 1.7 µM
- Kd (HLA-A*26:02): ≥ 20 µM

Sequence: SMNYPNSYK
- Kd (HLA-A*69:01; [20]): ≥ 20 µM
- Kd (HLA-B*39:01 [3]; [20]): ≥ 20 µM
- Kd (HLA-A*02:01 [4]; [20]): ≥ 20 µM
- Kd (HLA-B*51:01 [6]; [20]): ≥ 20 µM
- Kd (HLA-B*15:17; [20]): ≥ 20 µM
- Kd (HLA-B*46:01; [20]): ≥ 20 µM
- Kd (HLA-B*15:42): ≥ 5 µM
- Kd (HLA-B*57:01; [20]): ≥ 20 µM
- Kd (HLA-B*45:06): ≥ 5 µM
- Kd (HLA-A*26:01; [20]): ≥ 20 µM
- Kd (HLA-B*18:01; [20]): ≥ 20 µM
- Kd (HLA-B*83:01): ≥ 5 µM
- Kd (HLA-A*11:01 [7]): ≤ 0.001 µM
- Kd (HLA-A*68:02 [8]; [20]): ≥ 20 µM
- Kd (HLA-A*29:02; [20]): ≥ 20 µM
- Kd (HLA-A*02:03 [9]; [20]): ≥ 20 µM
- Kd (HLA-A*02:12; [20]): ≥ 20 µM
- Kd (HLA-A*02:16; [20]): ≥ 20 µM
- Kd (HLA-A*02:11; [20]): ≥ 20 µM
- Kd (HLA-A*24:03; [20]): ≥ 20 µM
- Kd (HLA-A*23:01; [20]): ≥ 20 µM
- Kd (HLA-A*02:19; [20]): ≥ 20 µM

Sequence: ILNRKAIDF
- Kd (HLA-A*69:01; [21]): ≥ 20 µM
- Kd (HLA-B*39:01 [3]; [21]): ≥ 20 µM
- Kd (HLA-A*02:01 [4]; [21]): ≥ 20 µM
- Kd (HLA-B*51:01 [6]; [21]): ≥ 20 µM
- Kd (HLA-B*15:17; [21]): ≥ 20 µM
- Kd (HLA-B*46:01; [21]): ≥ 20 µM
- Kd (HLA-B*27:03; [21]): ≥ 20 µM
- Kd (HLA-B*57:01; [21]): ≥ 20 µM
- Kd (HLA-A*26:01; [21]): ≥ 20 µM
- Kd (HLA-B*18:01; [21]): ≥ 20 µM
- Kd (HLA-A*68:02 [8]; [21]): ≥ 20 µM
- Kd (HLA-A*03:01 [10]; [21]): ≥ 20 µM
- Kd (HLA-A*29:02; [21]): ≥ 20 µM
- Kd (HLA-A*02:03 [9]; [21]): ≥ 20 µM
- Kd (HLA-A*02:12; [21]): ≥ 20 µM
- Kd (HLA-A*02:16; [21]): ≥ 20 µM
- Kd (HLA-A*02:11; [21]): ≥ 20 µM
- Kd (HLA-A*24:03; [21]): ≥ 20 µM
- Kd (HLA-B*15:01 [11]): 0.372 µM
- Kd (HLA-A*23:01; [21]): ≥ 20 µM
- Kd (HLA-A*02:19; [21]): ≥ 20 µM
- IC50 (HLA-A*24:02): 3.28 µM
- IC50 (HLA-B*15:01 [12]; source organism: Sudan ebolavirus): 12.5 µM

Sequence: SMHYKLDEV
- Kd (HLA-A*69:01; [21]): ≥ 20 µM
- Kd (HLA-B*39:01 [3]; [21]): ≥ 20 µM
- Kd (HLA-B*51:01 [6]; [21]): ≥ 20 µM
- Kd (HLA-B*15:17; [21]): ≥ 20 µM
- Kd (HLA-B*46:01; [21]): ≥ 20 µM
- Kd (HLA-B*27:03; [21]): ≥ 20 µM
- Kd (HLA-B*57:01; [21]): ≥ 20 µM
- Kd (HLA-A*26:01; [21]): ≥ 20 µM
- Kd (HLA-B*15:01 [13]; [21]): ≥ 20 µM
- Kd (HLA-B*18:01; [21]): ≥ 20 µM
- Kd (HLA-A*02:01 [14]): 0.0151 µM
- Kd (HLA-A*03:01 [10]; [21]): ≥ 20 µM
- Kd (HLA-A*29:02; [21]): ≥ 20 µM
- Kd (HLA-A*24:03; [21]): ≥ 20 µM
- Kd (HLA-A*23:01; [21]): ≥ 20 µM

Sequence: DLEKYNLAF
- Kd (HLA-A*69:01; [21]): ≥ 20 µM
- Kd (HLA-B*39:01 [3]; [21]): ≥ 20 µM
- Kd (HLA-A*02:01 [4]; [21]): ≥ 20 µM
- Kd (HLA-B*51:01 [6]; [21]): ≥ 20 µM
- Kd (HLA-B*15:17; [21]): ≥ 20 µM
- Kd (HLA-B*46:01; [21]): ≥ 20 µM
- Kd (HLA-B*27:03; [21]): ≥ 20 µM
- Kd (HLA-B*57:01; [21]): ≥ 20 µM
- Kd (HLA-A*26:01; [21]): ≥ 20 µM
- Kd (HLA-B*15:01 [13]; [21]): ≥ 20 µM
- Kd (HLA-B*18:01; [21]): ≥ 20 µM
- Kd (HLA-A*01:01; [21]): ≥ 20 µM
- Kd (HLA-A*68:02 [8]; [22]): ≥ 20 µM
- Kd (HLA-A*03:01 [10]; [22]): ≥ 20 µM
- Kd (HLA-A*29:02; [22]): ≥ 20 µM
- Kd (HLA-A*02:03 [9]; [22]): ≥ 20 µM
- Kd (HLA-A*02:12; [22]): ≥ 20 µM
- Kd (HLA-A*02:16; [22]): ≥ 20 µM
- Kd (HLA-A*02:11; [22]): ≥ 20 µM
- Kd (HLA-A*24:03; [22]): ≥ 20 µM
- Kd (HLA-A*23:01; [22]): ≥ 20 µM
- Kd (HLA-A*02:19; [22]): ≥ 20 µM

Sequence: TLRKERLAK
- IC50 (HLA-A*11:01 [15]; [21]): 4.25 µM
- IC50 (HLA-A*03:01 [16]; [21]): 0.509 µM
- IC50 (HLA-B*07:02; [21]): ≥ 119 µM
- IC50 (HLA-B*15:01 [12]; [21]): ≥ 171 µM

Sequence: MQQGRFPPL
- Kd (HLA-B*08:01): 0.34 µM

Sequence: FIHIPGDTL
- IC50 (HLA-A*02:01 [17]): 2.55 µM
- IC50 (HLA-B*07:02; source organism: Variola virus): 47 µM
- IC50 (HLA-B*15:01 [12]; source organism: Variola virus): ≥ 80.7 µM

Sequence: EELKSLFNTI
- Kd (HLA-A*68:02 [5]): 1.18 µM
- Kd (HLA-A*02:03 [18]): 1.54 µM

Sequence: TTDDSTSYY
- Kd (HLA-A*69:01; [23]): ≥ 20 µM
- Kd (HLA-B*39:01 [3]; [23]): ≥ 20 µM
- Kd (HLA-A*02:01 [4]; [23]): ≥ 20 µM
- Kd (HLA-B*51:01 [6]; [23]): ≥ 20 µM
- Kd (HLA-B*15:17; [23]): ≥ 20 µM
- Kd (HLA-B*46:01; [23]): ≥ 20 µM
- Kd (HLA-B*27:03; [23]): ≥ 20 µM
- Kd (HLA-B*57:01; [23]): ≥ 20 µM
- Kd (HLA-A*26:01; [23]): ≥ 20 µM
- Kd (HLA-B*15:01 [13]; [23]): ≥ 20 µM
- Kd (HLA-B*18:01; [23]): ≥ 20 µM
- Kd (HLA-A*01:01; source organism: Reston ebolavirus - Reston): 0.0122 µM
- Kd (HLA-A*68:02 [8]; [23]): ≥ 20 µM
- Kd (HLA-A*03:01 [10]; [23]): ≥ 20 µM
- Kd (HLA-A*02:03 [9]; [23]): ≥ 20 µM
- Kd (HLA-A*02:12; [23]): ≥ 20 µM
- Kd (HLA-A*02:16; [23]): ≥ 20 µM
- Kd (HLA-A*02:11; [23]): ≥ 20 µM
- Kd (HLA-A*24:03; [23]): ≥ 20 µM
- Kd (HLA-A*23:01; [23]): ≥ 20 µM
- Kd (HLA-A*02:19; [23]): ≥ 20 µM

Sequence: YIKNIGNTK
- IC50 (HLA-A*11:01 [15]; [24]): 30.5 µM
- IC50 (HLA-A*03:01 [16]; [24]): 6.51 µM
- IC50 (HLA-B*07:02; [24]): ≥ 745 µM
